Measured values taken from PMC7276532, “C-terminal eYFP fusion impairs Escherichia coli MinE function” (Open Biology, 2020).

T1: Strep-MinD^D40AΔ10 (E. coli, UniProt P0AEZ3 1-260, D40A)
T1 construct: MinD, E. coli, with D40A and lacking the last 10 amino acids; the reverse primer anneals 33 nucleotides upstream of the stop codon of minD; Cloned into the pET28a backbone without the region between NcoI and HindIII, so without the His and T7 tags; also called MinD^D40Δ10; source: E. coli Rosetta (DE3) pLysS, purified (Strep-Tactin cartridge, desalting); not shown: Strep-tag, N-terminal, kept
T1 sequence (looked up): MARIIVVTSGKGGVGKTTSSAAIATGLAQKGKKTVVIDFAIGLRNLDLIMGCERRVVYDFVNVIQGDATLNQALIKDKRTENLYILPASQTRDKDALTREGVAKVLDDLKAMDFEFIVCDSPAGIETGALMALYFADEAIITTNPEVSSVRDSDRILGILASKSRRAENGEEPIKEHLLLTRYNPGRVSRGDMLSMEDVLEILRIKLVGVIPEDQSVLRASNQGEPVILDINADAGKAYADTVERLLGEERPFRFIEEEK


Key:
Strep-MinD^D40AΔ10 = target: T1, Strep-MinD^D40AΔ10; test: pull-down; about 5 µM His-MinE or His-MinE-eYFP on MagneHis beads with 3 µM Strep-MinD^D40AΔ10, with ATP (1 mM), 5 mM MgCl2, 50 mM HEPES-KOH pH 7.25, 150 mM KCl, 10% glycerol, room temperature, 15 min; eluted with imidazole; settings: both partners purified
[1] = target: the molecule itself; test: SEC; Superdex 200, 13 µM protein injected, 50 mM HEPES-KOH pH 7.25, 150 mM KCl, 0.1 mM EDTA, 10% glycerol, room temperature; size judged against BSA (66 kDa) and carbonic anhydrase (29 kDa)

binding result (Strep-MinD^D40AΔ10)	Binder	stoichiometry N [1]
binds	His-MinE (natural protein, E. coli, UniProt P0A734 1-88, looked up, MinE, E. coli; the minE gene amplified from the MG1655 genome into pET28a (BamHI/HindIII); 88 amino acids; The same construct as m1, with the His-tag kept for the pull-down; source: E. coli Rosetta (DE3) pLysS, purified (IMAC nickel column, desalting); not shown: His6, N-terminal, kept) MALLDFFLSRKKNTANIAKERLQIIVAERRRSDAEPHYLPQLRKDILEVICKYVQIDPEMVTVQLEQKDGDISILELNVTLPEAEELK	–
–	MinE (untagged MinE; His-tag removed with thrombin) (natural protein, E. coli, UniProt P0A734 1-88, looked up, MinE, E. coli; the minE gene amplified from the MG1655 genome into pET28a (BamHI/HindIII); 88 amino acids; Eluted as a tetramer in SEC; also called wild-type; source: E. coli Rosetta (DE3) pLysS, purified (IMAC nickel column, desalting), His-tag removed with thrombin; not shown: His6, N-terminal, cleaved) MALLDFFLSRKKNTANIAKERLQIIVAERRRSDAEPHYLPQLRKDILEVICKYVQIDPEMVTVQLEQKDGDISILELNVTLPEAEELK	4
